{
  "source": "the nanobody polyreactivity screen of Harvey et al. (2022)",
  "data": [
    {"assay": "yeast display, Sf9 membrane polyspecificity reagent, FACS + sequencing; frameworks hold sequencing errors", "summary_of_the_method": "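Synthetic nanobody libraries on Saccharomyces cerevisiae BJ5465 were galactose-induced for 36–48 hours, stained 1 hour at 4 °C with 10% biotinylated, detergent-solubilized Sf9 membrane reagent and enriched on streptavidin microbeads. FACS then separated cells into low and high (top ~1%) gates by anti-HA (expression) and streptavidin (reagent binding) fluorescence. Genes were colony-PCR amplified, MiSeq 2 × 250 sequenced and CDR-length filtered. A clone's polyreactivity label is that of its gate of origin.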", "values": [
      {"sequence": "QGQLVESGGRLVQAGGSLRLSCAASGFTFDSYAMAWYRQAPGKERELVASISSSGSTNYADSVKGRFTISRDNAKNTVYLQMNSLKPEDTAVYYCAAVSRYPFIYEYWGQGTQVTVSS", "polyreactivity (PSR sort gate)": "low polyreactivity"},
      {"sequence": "QGQLVESGRGLVQAGGSLRLSCAASGRIFVIYDIGWYRQAPGKEREFVAAISWRSGSTYYADSVKGRFTISRDNAKNTVYLQMNSLKPDDTAVYDCNKDYHVRYYYWGQGTQVTVSS", "polyreactivity (PSR sort gate)": "low polyreactivity"},
      {"sequence": "QGQLVESGVGLVQAGGSLSLSCAASGSILNNYAMAWYIQAPGKERELVAAISSSGGTNYADSVKGRFTISRDNAKNTVYLQMNSLKPEDTAVYYCNADVLDGGYDYWGQGTQVTVSS", "polyreactivity (PSR sort gate)": "low polyreactivity"},
      {"sequence": "QGQLVESRGGLVQAGGRLRLSCAASGAIVSKNAMGWYRQAPGKERELVAAISRSAGSTYYADSVKGRFTISRVNAKNTVYLQLHSLKPEDTAVFYCAADWYYWQLWWGEGDYWGQGTQVTVSS", "polyreactivity (PSR sort gate)": "low polyreactivity"},
      {"sequence": "QGQLVESRGGLVQAGGSLRLSCAASGRTFYYYGMGWYIQAPGKERELVATINSGASTYYADSVKGRFTISRDNAKNTVYLQINSLKPEDTAVYYCDAAKENGKYDYWGQGTQVTVSS", "polyreactivity (PSR sort gate)": "high polyreactivity"},
      {"sequence": "QGQLVESWGGLVQAGGSLRLSSDASGRTFSLYAMGWYRQAPGKQTELVASITDSTGGSTYYADSVKGRFTISRDNAKNTVYLQMNSLKPADTAVYYSAAQDYQYSDYQWWFGFWGQGTQVTVSS", "polyreactivity (PSR sort gate)": "low polyreactivity"},
      {"sequence": "QGQLVETGGGLGQAGGSLRLSCAASGRIFPTNAMGWSRPAPGKERELVAAIPVSGGSTFYADSVKGRFTISRDNAKNTVYLQLNSLKPDDTAVDDCAVDDRASVGSRLDHWGQGTQVTVSS", "polyreactivity (PSR sort gate)": "low polyreactivity"},
      {"sequence": "QGQLVVSGGGLVQAGGSLRLSCAASGRTFSVNAMGGYRQAPGKERELVAAITSGASTNYADSVKGRFTISRDNAKNTVYLQMNSLKPEDTAVYYCAADATYGHVPAEYDYWGQGTQVTVSS", "polyreactivity (PSR sort gate)": "low polyreactivity"},
      {"sequence": "QGQRVESAGGLVQAGGSLRLSCDASGRIFDNYAMGWSSPAPGKERELVAAISRAGNTYADSVKGRVTISRDNAKNTVNLQMNSLNPEETAVFYCAARLYWGRYNYWGQGTQVTVSS", "polyreactivity (PSR sort gate)": "high polyreactivity"},
      {"sequence": "QGQRVESGGGLVQAGGSLRLSCAASGRIFRGYDMGWYRQSPGKERELVAAISGSGGSTYYADSVKGRFTISRDYAKNSVYLQMNSLQPEDTAVYYCAADQQSTGDWAGDYWGQGTQVTVSS", "polyreactivity (PSR sort gate)": "low polyreactivity"},
      {"sequence": "QGQRVESGGGLVQAGGSLRLSCAASGSIFHGYAMGWDRQAPGKERELVADITSGGGTYYADSVKGRFTISRDNAKTTVYLQMNSLKPEDTAVYYCATQKSRRYGYWVQGTQVTVSS", "polyreactivity (PSR sort gate)": "low polyreactivity"},
      {"sequence": "QHQLVESGGGLVQAGGSLRLSCAASGRTFYWNAMGWYRQAPGKERELVAGISNGGTTTYYADSVKGRFTISRDNAKNTVYLQMNSLKPEDTAVYYCAADIWYFDYDYWGQGTQVNVSS", "polyreactivity (PSR sort gate)": "high polyreactivity"},
      {"sequence": "QIQLVESGGGLDQAGGSLRLSCAASGSNFVWNAMGWSRQAPGKERELVAAISYTDGSTYYADSVKGRFTISRDNAKNTVYLQMNSLKREDTAVYYCAAAITPSYTGSQYDYWGQGTQVTVSS", "polyreactivity (PSR sort gate)": "low polyreactivity"},
      {"sequence": "QIQLVESGGGLLQAGGSLGLSCAASGSIFVKYAMGWYRQAPGKERELVAAITTGVGSTYYADSVKGRFTISRDNAKNTVYLQMNSVKPEDSAVFYWNAYAYFGPWWSFRATYDYWGQGTQVTVSS", "polyreactivity (PSR sort gate)": "low polyreactivity"},
      {"sequence": "QIQLVESGGGLVQAGGSLRLSCAASGFTFYANAMGWYRQAPGKERELVAAISSSGGSTYYADSVKGRFTISRDNAKNTVYLQMNSLKPEDTAVYYCNVYSRHWYRYEFDYWGQGTQVTVSS", "polyreactivity (PSR sort gate)": "high polyreactivity"},
      {"sequence": "QIQLVESGGGLVQAGGSLRLSCSASGSISGYYSRRWYRQAPGKQSEFVASIRYTGARTYYADSVKGRFTISLDNAKNTVYLQMNSLIAEDTAVYFWAADVKRDSVWGGDYWGQGNQVTVSS", "polyreactivity (PSR sort gate)": "low polyreactivity"},
      {"sequence": "QIQLVESGGGLVQAGSSLRLSCAASGRTFNTYAMGGYRPAPGNERELVAAITYNGGSTYYADSVKGRFTISRDNAKTTVYLQMNSLKPEYTAVYDCNVRLRTRYRKYDYWGQGTQVTVSS", "polyreactivity (PSR sort gate)": "high polyreactivity"},
      {"sequence": "QLHLVESGGGLVQAGGSLRLSCAASGRIFGVYAMGWYRQAPGKERELVASITWRGGSTYYADSVKGRFTISRDNAKNTVYLQMNSLKPEDTAVYYCAAAYWYAYEYWGQGTQVTVSS", "polyreactivity (PSR sort gate)": "high polyreactivity"},
      {"sequence": "QLKLEESGGGLVQAGGSLRLSCAASGFIFSYNAMGWYRQAPGKERELDAAISSIGSGTYYADSVKGRFTISRDNAKYTVYLQMNSLKPEDTAVYYCAKYLRPRIGSRYYYWGQGTQVTVSS", "polyreactivity (PSR sort gate)": "high polyreactivity"},
      {"sequence": "QLQHVESGGGLVQAGGSLRLSCAASGSTFYRNAKGWSRQAPGKEREFVADITLGGGSTYYADSVKGRFTISRDHAKNTVYLQMKSLKPEDTAVYFCAVDYWQLNYDYWGQGTQVTVSS", "polyreactivity (PSR sort gate)": "low polyreactivity"},
      {"sequence": "QLQHVESGVGIVQAGRSLRLSCAASGRTFSHYAMGWYRQAPGKERELVAAIRWRGGSTYYADSVKGRFTISRDNAKNTVYLQMNSRKPEDTAVSYCAAVALYIWTHPSDYWGLGTQVTVSS", "polyreactivity (PSR sort gate)": "high polyreactivity"},
      {"sequence": "QLQLEDSAGGLVQAGGSLRLSFAASGFIFDPNAIGWYRQAPAKEREFVAAIRTSGGSTYYADSVKGRFTISRDNAKNTVYLQMNSLKPEDPAVYYCAAKGRYADWSGYGYWGQGTQVTVSS", "polyreactivity (PSR sort gate)": "high polyreactivity"},
      {"sequence": "QLQLEESVGGLVQAGVSLRLSCAASGRTFRRYAMGSDRPAPAKERELVATIRSGDNTNYADSVKGRFTISRDNAKNTFYLQMKSLKPEDTAVYYCNRSPKSGQVTYLYSVNAHYDYWGQGTQVTVSS", "polyreactivity (PSR sort gate)": "low polyreactivity"},
      {"sequence": "QLQLGESAGGLVQAGGSLRLSCAASGSIFGLNAIGWYIQAPGKERELVAAISSGGSTYYADSVKGRFTISRDNAKNTVYLQMNSLKPEDTAVYYCNAYFQYYDYWGLGTQVTVSS", "polyreactivity (PSR sort gate)": "low polyreactivity"},
      {"sequence": "QLQLGESGGGLVQAAGSRRLSCAASGRTLCYYAMGWYSQAPGQDRELVAAITWTGGRTYYADSVKGRFTISRDNPKNSVYLQMNTLKPDDTAVDYCNAVYSPRYYVGGYDYWGQGTQVTVSS", "polyreactivity (PSR sort gate)": "high polyreactivity"},
      {"sequence": "QLQLQESGGGLVQAGVCLSCTASGTIFGQGDMGWYRQAPGKERELVATINDGASTYYADSVKGRFTISRDKAKNTVYLQKNSLKPDDNAVYYCAVFTDITTYFGYWGQGTQVTVSS", "polyreactivity (PSR sort gate)": "low polyreactivity"},
      {"sequence": "QLQLQESGGGLVQGGGSLRLSCAASGSIYRSWYMGWYRQAPGKERELVASMTEGATTNYAYSVKAALPLAAITRNPVYLQMDSMKPEDTAVYYRAASFGSTYDLVYWGKGTQVTVSS", "polyreactivity (PSR sort gate)": "high polyreactivity"},
      {"sequence": "QLQLVDSGGGLVKAGGSLRLSCAASGRTFYRYAMGWYRKAPGKERELVAAINFSTGSTYYADSVKGRFTISRDNAKNTVYLQMNSLKPEDTAVYYCAVPYGSYVGYDYWGQGTQVTVSS", "polyreactivity (PSR sort gate)": "low polyreactivity"},
      {"sequence": "QLQLVDSGGGLVQAGGSLRLSCADSGRTYGAYTMGWYRKAPGKERELVAAINWSGGDTYYADSVKVRFTISRDNAKNTVYLQMNRLKPEDTAVYYCNAEPRYGTYDYWGQGTQVTVSS", "polyreactivity (PSR sort gate)": "low polyreactivity"},
      {"sequence": "QLQLVDSGGGVVQAGGSLRLSCAASGSTFSRYAMGWYRQAPGKEMELVAAISTRGGSTRYADSVKGRFTISRDNAKNTVYLQMYCRKPEDTAVYYGAALGQGRTSATSFVDYEYWGQGTQVTVSS", "polyreactivity (PSR sort gate)": "high polyreactivity"},
      {"sequence": "QLQLVDSGGGVVQAGGSLRLSCAASGSTYAQYVMGWYRPATGKEKELVAAISLSGGSTYYAASVKGRFTISRDNAKNTVYLQMNSLKPVDTAVYYCSARGYGPGLYSSRQNEYYYWGQGTQVTVSS", "polyreactivity (PSR sort gate)": "high polyreactivity"},
      {"sequence": "QLQLVDSGRGLVQAGGSLRLSSAASGSIFVTNGMGWYRQAPGKERELVAVISWGGGNTYYADSVKGRFTISRDNAKNTVYLQMNNLKPEDTAVYYCAVELYWDYYFTYDYWGQGTQVTVSS", "polyreactivity (PSR sort gate)": "low polyreactivity"},
      {"sequence": "QLQLVESAGGLVQAGGSLRLSCAASASTFGSYAMGWYRQATGKETELDASNTSAGSTNYADSVKGRFTISRDNAKNTVYLQMNSLKPVDTEVYYCNDVRYYSYQYVPEVTHRYGFWGQGTQVTVSS", "polyreactivity (PSR sort gate)": "high polyreactivity"},
      {"sequence": "QLQLVESAVGLDQAVDILRLSSAASGFIFPGNMGWYRKAPGKETELVAAISWSGGSTRYADSVKGRFTISRDNAKNTVYLQMNSLKPEDTAVYYCAASLSGKRFNKRYYWGQGTQVTVSS", "polyreactivity (PSR sort gate)": "high polyreactivity"},
      {"sequence": "QLQLVESGGALVQAGGSLRFSCAASARTYGKNAMGWYRQAPGKERELDAAITWSGSSTYYADSVKGRFTISRHNAKNTVYLQMNSLKAEDTAVYYCAKEDWQLDYTVTWRKMDSWGQVTQVTVSS", "polyreactivity (PSR sort gate)": "low polyreactivity"},
      {"sequence": "QLQLVESGGGLDQAGVSLRLSCAASGFIFRNYAIGSYRQAPGNESELVAAITRSGTSTYYADSVKGRFSISRDNAKNTVYLQMNSLKPEDTAVYYCNTRYWLYYHRFDYWGQGTQVTVSS", "polyreactivity (PSR sort gate)": "high polyreactivity"},
      {"sequence": "QLQLVESGGGLLQAGGSLRLSCAAPGSTFAPNTMGWNRQPPGKARELVARITSSDGSTSYADSVKGRFTISRDNAKNTVYLQMNSLKPEDTAVYYCAAQYSYSMDYWGQGTQVTVSS", "polyreactivity (PSR sort gate)": "low polyreactivity"},
      {"sequence": "QLQLVESGGGLVKAGGSLRLSCAASGRTLPVYAMGWYRQAPGKERELVAAIRWRGGRTYYADSVKGRFTISRDNAKNTVYLQMNSLKPEDTAVYYCAATTNTDRDYWGQGTQVTVSS", "polyreactivity (PSR sort gate)": "high polyreactivity"},
      {"sequence": "QLQLVESGGGLVQAGGRLRLSCAASARILSSYAMGSYRQAPGKERELVARISYSGGRTYYADSVKGRFTISRDNAKNTVYLQMNSLKPEDTAVYYCAAVSRVHFSYSYDYWGQGTEVTVSS", "polyreactivity (PSR sort gate)": "high polyreactivity"},
      {"sequence": "QLQLVESGGGLVQAGGRLRLSCAASGFIFWSYAMGWYRQAPGKERELVAAISARGGSTYYADSVKGRFTISRDNSKNTVYLQMNSLKPEDTAVYYCAAPRASGYYWGKGTQVTVSS", "polyreactivity (PSR sort gate)": "high polyreactivity"},
      {"sequence": "QLQLVESGGGLVQAGGSLRLSCAAAGSTFRLYAMGWYRPAPGKERKLVAAISGRGDRTYYADSVKGRFTISRDNAKNAVYLQMISLKPEDTAVYSCAAKSGFIPYDYWGQGTQVTVSS", "polyreactivity (PSR sort gate)": "high polyreactivity"},
      {"sequence": "QLQLVESGGGLVQAGGSLRLSCAASGFIFETYAMGCYIQAPGKERELVAAISRGASTYYADSVKGRFTISRDNAKNTVYLQMNSLKPEYTAVYYCAAKRLSWHRYGYWGQGTQVTVSS", "polyreactivity (PSR sort gate)": "low polyreactivity"},
      {"sequence": "QLQLVESGGGLVQAGGSLRLSCAASGFTFDSYAMGWYRQAPGKERELVAAITWDGGSTYYADSVKGRFTISRDNAKNTVYLQMNSLKPEDTAVYYCAADFGTISIDVYSWMDYWGQGTQVTVSS", "polyreactivity (PSR sort gate)": "low polyreactivity"}
    ]}
  ]
}
